# Patent US12247238B2, “Mogroside biocatalysis methods and products” (The Coca-Cola Company, priority 2019, dated 2025)
# Entries after “also recorded” stand apart in the source; their conditions may differ.
# B1: E142A: A. oryzae β-galactosidase variant, E142A (protein, UniProt Q2UCU3 19-1005, looked up, variant E142A)
# Beta-galactosidase A: ASIKHRLNGFTILEHPDPAKRDLLQDIVTWDDKSLFINGERIMLFSGEVHPFRLPVPSLWLDIFHKIRALGFNCVSFYIDWALLEGKPGDYRAEGIFALEPFFDAAKEAGIYLIARPGSYINAAVSGGGFPGWLQRVNGTLRSSDEPFLKATDNYIANAAAAVAKAQITNGGPVILYQPENEYSGGCCGVKYPDADYMQYVMDQARKADIVVPFISNDASPSGHNAPGSGTGAVDIYGHDSYPLGFDCANPSVWPEGKLPDNFRTLHLEQSPSTPYSLLEFQAGAFDPWGGPGFEKCYALVNHEFSRVFYRNDLSFGVSTFNLYMTFGGTNWGNLGHPGGYTSYDYGSPITETRNVTREKYSDIKLLANFVKASPSYLTATPRNLTTGVYTDTSDLAVTPLIGDSPGSFFVVRHTDYSSQESTSYKLKLPTSAGNLTIPQLEGTLSLNGRDSKIHVVDYNVSGTNIIYSTAEVFTWKKFDGNKVLVLYGGPKEHHELAIASKSNVTIIEGSDSGIVSTRKGSSVIIGWDVSSTRRIVQVGDLRVFLLDRNSAYNYWVPELPTEGTSPGFSTSKTTASSIIVKAGYLLRGAHLDGADLHLTADFNATTPIEVIGAPTGAKNLFVNGEKASHTVDKNGIWSSEVKYAAPEIKLPGLKDLDWKYLDTLPEIKSSYDDSAWVSADLPKTKNTHRPLDTPTSLYSSDYGFHTGYLIYRGHFVANGKESEFFIRTQGGSAFGSSVWLNETYLGSWTGADYAMDGNSTYKLSQLESGKNYVITVVIDNLGLDENWTVGEETMKNPRGILSYKLSGQDASAITWKLTGNLGGEDYQDKVRGPLNEGGLYAERQGFHQPQPPSESWESGSPLEGLSKPGIGFYTAQFDLDLPKGWDVPLYFNFGNNTQAARAQLYVNGYQYGKFTGNVGPQTSFPVPEGILNYRGTNYVALSLWALESDGAKLGSFELSYTTPVLTGYGNVESPEQPKYEQRKGAY
# What was measured:
# Assay type in all cases: biochemical
# [1] = Example 8 standard mogroside biocatalytic assay, Sia I as substrate; details: 37° C., pH 5.6
# Description: (§1) Standard mogroside biocatalytic assays were performed at 37° C. in 500 μL volume 50 mM sodium citrate buffer pH 5.6, 10 mM magnesium chloride, 10 mM substrate (typically mogroside V or Siamenoside I) and 50 μg mL−1 enzyme, and incubated for 24-96 hours. Mogroside glucosidation activity was detected by direct HPLC detection and quantification of mogroside V substrate and mogroside products from filtered reaction supernatant, and quantified by comparison with standard curves based on peak area (see Analytical Methods).
# (§2) Analytical Method: Mogroside compounds HPLC separation and quantification was conducted using a Synergi Hydro-RP column (250 mm×4.6 mm or 150 mm×4.6 mm) with an initial flow rate of 1 mL min−1 and a water: acetonitrile gradient as per below, similar to that described by Zhou et al. (WO 2014/150127). Compounds were detected at 210 nm using diode array detector (Agilent Technologies, USA), and calibration curves established using standard curves from 0.1 to 10 mM. 150 mm column retention times in minutes: mog V 9.5, sia 1 10.6, mog IVa 10.5, mog IV 11.3, mog III 12.6, mogl I 13.2. 250 mm column retention times: mog V 12.3, sia 1 13.2, mog IVa 13.5, mog IV 14.1, mog III 15.3, mog II 16.2.
# [2] = Example 8 standard mogroside biocatalytic assay, Mog V as substrate; details: 37° C., pH 5.6
# Description: as §1, §2
# [3] = β-galactosidase ONPG activity assay; details: oNPG substrate, over 30 minutes
# Description: Standard β-galactosidase assays were performed at room temperature using o-nitrophenyl-β-D-galactopyranoside (ONPG, Sigma) as a substrate in […] with detection of o-nitrophenol release at 420 nm (UV-Spectra Max Spectrophotometer, Molecular Devices, USA). A typical reaction contained 50 mM sodium citrate buffer pH 5.6, 10 mM magnesium chloride and 100 mM potassium chloride with 2 mM ONPG and the desired amount of enzyme (usually […]). Partially purified AoBG (Sigma G5160, USA) was used as a positive control at a final concentration of 1 U mL−1. Vmax was calculated using the SpectraMax Plus software (Molecular Devices, USA) and when required kinetics were determined by varying the concentration of substrate and kinetic determinants calculated using Hyper™ (J. S. Easterby, Liverpool University).
# (§3) Cells expressing enzyme variants grown in buffered minimal medium were induced for 72 hr with 1% methanol (refreshed every 24 hr), the culture supernatant harvested and assayed for standard ONPG activity over 30 minutes and mogroside V activity at pH 5.6, 37° C. for 72 hrs. The resultant activity data (Table 2) identified E200 and D258 as the likely catalytic pair for acid/base and nucleophilic attack of mogroside V by the A. oryzae β-glucosidase enzyme.
# [4] = Example 8 standard mogroside biocatalytic assay, Mog V as substrate; details: 37° C., pH 5.6; remark: listed apart in the source
# [5] = Standard mogroside biocatalytic assay, mogroside V substrate
# Description: (§4) Standard mogroside biocatalytic assays were performed at 37° C. in 500 μL, volume 50 mM sodium citrate buffer pH 5.6, 10 mM magnesium chloride, 10 mM substrate (typically mogroside V) and 50 μg mL−1 enzyme, and incubated for 24-96 hours. Mogroside glucosidation activity was detected by direct HPLC detection and quantification of mogroside V substrate and mogroside products from filtered reaction supernatant, and quantified by comparison with standard curves based on peak.
# (§5) Mogroside compounds HPLC separation and quantification was conducted using a Synergi Hydro-RP column (250 mm×4.6 mm or 150 mm×4.6 mm) with an initial flow rate of 1 mL min−1 and a water: acetonitrile gradient as per below, similar to that described by Zhou et al. (WO 2014/150127). Compounds were detected at 210 nm using diode array detector (Agilent Technologies, USA), and calibration curves established using standard curves from 0.1 to 10 mM.
# as §3
# [6] = Mogroside biocatalytic assay, equimolar MogV:SiaI substrate
# Description: as §4, §5
# [7] = Mogroside biocatalytic assay, Siamenoside I substrate; details: SiaI Substrate (10 mM) (24 h), pH 5.6, 37° C.
# Description: as §4, §5
# [8] = Mog V Substrate (10 mM) (24 h), pH 5.6, 37° C.
# [9] = Mogroside hydrolysis, 72 h, 37 C., pH 5.6
# [10] = product ratio, 72 h, 37 C., pH 5.6
# [11] = Equimolar MogV:SiaI Substrate (5 mM each) (48 h), pH 5.6, 37° C.
molecule,measurement,setting,value
B1,Km,[1],4.42 ± 0.9 mM
same,kcat,[1],3.9 ± 0.7 s⁻¹
same,Reaction progress (% conversion),[2],91%
same,% Siamenoside I,[2]; 72 hr,78 ± 2.8%
same,oNPG,[3],33.6 ± 0.4 mAu/min/mg
same,Km,[4],2 ± 0.4 mM
same,kcat,[4],741 ± 38 s⁻¹
same,Siamenoside I production/yield from mogroside V (in words),[5],increased ratio of Siamenoside I production; also recorded: increased Siamenoside I yield
same,mog III,[5]; [8],1 molar percentage
same,mog V,[5]; [8],67 molar percentage
same,sia I,[5]; [8],32 molar percentage
same,Initial Rate,"[5]; Mogroside hydrolysis, 37 C., pH 5.6",2.16 µmol/min/mg
same,Reaction Progress,[5]; [9],89%
same,Sia 1,[5]; [9],73%
same,Sia:MogIII,[5]; [10],16.2
same,Sia:MogIV,[5]; [10],13
same,mog II,[6]; [11],0.1 molar percentage
same,mog III,[6]; [11],3 molar percentage
same,mog IV,[6]; [11],0.2 molar percentage
same,mog V,[6]; [11],10 molar percentage
same,sia I,[6]; [11],82 molar percentage
same,effectiveness of Siamenoside I as a substrate in the presence of mogroside V (in words),[6]; comparison of wildtype and variant,reducing the effectiveness of Siamenoside I as a substrate
same,mog II,[7],3 molar percentage
same,mog III,[7],12 molar percentage
same,sia I,[7],84 molar percentage
